How the values were obtained:
Assay in all cases: cell-based or functional assay
human GLP-R (human) = human GLP-R (human) (UniProt P43220)
human GCG-R (human) = human GCG-R (human) (UniProt P47871)
human GIP-R (human) = human GIP-R (human) (UniProt P48546)
Sequence of human GIP-R (human) (P48546 22-466): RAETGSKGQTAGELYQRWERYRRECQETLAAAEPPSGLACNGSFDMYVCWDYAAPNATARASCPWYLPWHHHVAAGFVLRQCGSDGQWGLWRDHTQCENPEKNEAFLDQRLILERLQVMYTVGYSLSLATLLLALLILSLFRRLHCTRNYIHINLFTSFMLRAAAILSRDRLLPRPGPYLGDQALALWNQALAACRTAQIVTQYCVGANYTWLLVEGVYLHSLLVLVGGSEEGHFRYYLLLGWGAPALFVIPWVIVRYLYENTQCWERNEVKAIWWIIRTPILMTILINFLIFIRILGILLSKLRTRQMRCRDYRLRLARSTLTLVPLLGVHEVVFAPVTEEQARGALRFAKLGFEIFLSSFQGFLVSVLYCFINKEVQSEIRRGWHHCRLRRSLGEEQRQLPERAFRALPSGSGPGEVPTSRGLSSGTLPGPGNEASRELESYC

Sequence of human GLP-R (human) (P43220 24-463): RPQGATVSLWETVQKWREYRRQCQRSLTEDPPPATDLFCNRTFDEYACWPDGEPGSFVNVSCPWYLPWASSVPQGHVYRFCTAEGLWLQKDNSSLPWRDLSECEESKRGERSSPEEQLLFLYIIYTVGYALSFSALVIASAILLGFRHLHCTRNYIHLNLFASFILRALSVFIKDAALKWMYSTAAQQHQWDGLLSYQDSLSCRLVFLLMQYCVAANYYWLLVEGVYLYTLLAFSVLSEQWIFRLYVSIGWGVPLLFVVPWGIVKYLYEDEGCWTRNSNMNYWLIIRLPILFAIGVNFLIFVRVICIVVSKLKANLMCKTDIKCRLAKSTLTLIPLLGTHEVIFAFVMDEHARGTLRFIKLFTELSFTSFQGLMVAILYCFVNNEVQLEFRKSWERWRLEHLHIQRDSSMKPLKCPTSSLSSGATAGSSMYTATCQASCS
Sequence of Dulaglutide (Fc fusion) (chain): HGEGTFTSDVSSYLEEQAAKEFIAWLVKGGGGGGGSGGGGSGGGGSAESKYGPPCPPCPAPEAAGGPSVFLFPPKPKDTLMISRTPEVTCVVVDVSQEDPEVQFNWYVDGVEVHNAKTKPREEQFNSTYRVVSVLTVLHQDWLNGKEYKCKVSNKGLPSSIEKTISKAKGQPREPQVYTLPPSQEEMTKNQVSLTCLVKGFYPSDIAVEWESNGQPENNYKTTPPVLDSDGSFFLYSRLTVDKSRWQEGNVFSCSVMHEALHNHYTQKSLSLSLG
Sequence of human GCG-R (human) (P47871 26-477): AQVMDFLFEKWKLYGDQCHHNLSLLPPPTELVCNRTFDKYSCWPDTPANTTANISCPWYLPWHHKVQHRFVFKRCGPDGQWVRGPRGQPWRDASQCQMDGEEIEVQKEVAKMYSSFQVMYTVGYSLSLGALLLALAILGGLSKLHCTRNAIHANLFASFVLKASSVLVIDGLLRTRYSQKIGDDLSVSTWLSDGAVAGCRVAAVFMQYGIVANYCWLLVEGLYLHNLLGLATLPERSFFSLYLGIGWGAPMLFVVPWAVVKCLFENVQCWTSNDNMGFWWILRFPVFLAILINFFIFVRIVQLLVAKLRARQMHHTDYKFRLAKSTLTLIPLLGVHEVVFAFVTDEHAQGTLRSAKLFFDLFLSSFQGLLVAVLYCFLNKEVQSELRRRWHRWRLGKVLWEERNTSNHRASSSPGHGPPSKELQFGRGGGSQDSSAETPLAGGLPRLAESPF

Dulaglutide (Fc fusion)
% max GLP-1, human GLP-R (cAMP assay) (human GLP-R (human)): 98.2% | EC50 [nM], human GLP-R (cAMP assay) (human GLP-R (human)): 0.129 nM | % max GCG, human GCG-R (cAMP assay) (human GCG-R (human)): 1.6% | EC50 [nM], human GCG-R (cAMP assay) (human GCG-R (human)): > 600 nM | % max GIP, human GIP-R (cAMP assay) (human GIP-R (human)): 13.8% | EC50 [nM], human GIP-R (cAMP assay) (human GIP-R (human)): > 600 nM

G3Fc only (from UniProt P0DOX5 223-449)
EC50 [nM], GLP1-R (cAMP assay) (human GLP-R (human)): > 600 nM | EC50 [nM], GIP-R (cAMP assay) (human GIP-R (human)): > 600 nM
